Assay results as given in the supplement of paper PMC7125110.
± gives the standard error. Fewer inactive variants are shown than the library holds.

B1: glmS ribozyme (parent)
chain: AUAAAAGCGCCAGAACUACAGAAAUGUAGUUGACGAGGAGGAGGUUUAUCGAAUUUUCGGCGGAUGCCUCCAAA

What was measured:
Details in all cases: with glucosamine-6-phosphate
glucosamine-6-phosphate [1] = variants of: B1; assay: self-cleavage kobs at 640 uM GlcN6P; higher = faster cleavage; RNA array
Summary of the method: (§1)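 A hybridised Cy3 probe tracked barcoded ribozyme variants, transcribed in situ by E. coli RNA polymerase on sequenced MiSeq chips, at 37 °C. The variants received 40 μM to 10 mM glucosamine-6-phosphate in HEPES/KCl/Mg(OAc)2 buffer. kobs came from decay fits and kcat and KM from weighted Michaelis–Menten fits.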

glucosamine-6-phosphate [2] = variants of: B1; assay: self-cleavage kobs at 2500 uM GlcN6P; higher = faster cleavage; RNA array
Summary of the method: as §1

glucosamine-6-phosphate [3] = variants of: B1; assay: self-cleavage kobs at 10000 uM GlcN6P; higher = faster cleavage; RNA array
Summary of the method: as §1

Variant | self-cleavage kobs at 640 uM GlcN6P (glucosamine-6-phosphate [1]) [s⁻¹] | self-cleavage kobs at 2500 uM GlcN6P (glucosamine-6-phosphate [2]) [s⁻¹] | self-cleavage kobs at 10000 uM GlcN6P (glucosamine-6-phosphate [3]) [s⁻¹]
AUAAAAGCGCCAGAACUACAGAAAUGUAGUUGACGUGGUGGAGGUUUAUCGAAUUUUCGGCGGAUGCCUCUAAA [A36U A39U C71U] | < 1e-05 | – | –
AUAAAAGCGCCAGAACUACAGAAAUGUAGUUGACGAAGAGGAGGUUUUUCGAACUUUCGGCGGAUGCCUCCAAA [G37A A48U U54C] | < 1e-05 | – | –
AUAAAAGCGCCAGAACUACAGAAAUGUAGUUGACGUGGAUGAGGUUUAUCGAAUUUUCGUCGGAUGCCUCCAAA [A36U G40U G60U] | < 1e-05 | < 1e-05 | –
AUAAAAGCGCCAGAACUACAGAAAUGUAGUUGACGAAGAGGAGGUUUAUCGAAUUUUCGGCGGGUGGCUCCAAA [G37A A64G C67G] | < 1e-05 | – | –
AUAAAAGCGCCAGAACUACAGAAAUGUAGUUGACGAAGAGGGGGUUUAUCGAAUUUUCGGCGGAUGCCUCGAAA [G37A A42G C71G] | 8.96e-05 ± 2.4e-05 | 5.5e-05 ± 1.6e-05 | 8.16e-05 ± 2.3e-05
AUAAAAGCGCCAGAACUACAGAAAUGUAGUUGACGGGGUGGAAGGUUAUCGAAUUUUCAGCGGAUGCCUCCAAA [A36G A39U G43A U45G G59A] | < 1e-05 | – | –
AUAAAAGCGCCAGAACUACAGAAAUGUAGUUGACGGGGAUGAGGUUUAUCGUAUUUUCGGCGGACGCCUCCAAA [A36G G40U A52U U65C] | < 1e-05 | – | –
AUAAAAGCGCCAGAACUACAGAAAUGUAGUUGACGGGGAGAAGGUUUAUCGAAUUUUCGGGGGAUGCCUCUAAA [A36G G41A C61G C71U] | < 1e-05 | < 1e-05 | –
AUAAAAGCGCCAGAACUACAGAAAUGUAGUUGACGGGGAGGAGGUUAAUCGAAUUUUCGGCGGAUGCCUCCAAA [A36G U47A] | < 1e-05 | – | –
AUAAAAGCGCCAGAACUACAGAAAUGUAGUUGACGUGGAGGAUGUUUAUCGAAUUUUCGGCGGAAGCCUCCAAA [A36U G43U U65A] | < 1e-05 | < 1e-05 | –
AUAAAAGCGCCAGAACUACAGAAAUGUAGUUGACGGGGAGGAGGUUUAUCGAAUUUUCGGCGGAUUCCUCCAAA [A36G G66U] | < 1e-05 | < 1e-05 | < 1e-05
AUAAAAGCGCCAGAACUACAGAAAUGUAGUUGACGCGGAGGAGGUUUAGCGAAUUUUCGGCGAAUGCCUCCAAA [A36C U49G G63A] | < 1e-05 | < 1e-05 | –
AUAAAAGCGCCAGAACUACAGAAAUGUAGUUGACGGGGAGGAGGAUUACCGAAUUUUCGGCGGAUGCCUCCAAA [A36G U45A U49C] | < 1e-05 | < 1e-05 | –
AUAAAAGCGCCAGAACUACAGAAAUGUAGUUGACGUGGAGGAGGAUUAUCGAAUUUUCGGCGUAUGCCUCCAAA [A36U U45A G63U] | < 1e-05 | < 1e-05 | –
AUAAAAGCGCCAGAACUACAGAAAUGUAGUUGACGCGGAGGAGGUUUAUCUAAUUUUCGGCGGAUGCCUGCAAA [A36C G51U C70G] | 0.000181 ± 5.1e-05 | 4.65e-05 ± 1.9e-05 | –
AUAAAAGCGCCAGAACUACAGAAAUGUAGUUGACGCGGAGGAGGUUUAUCGAAUUUUCGCCGGAUGCCUCCAAA [A36C G60C] | < 1e-05 | – | –
AUAAAAGCGCCAGAACUACAGAAAUGUAGUUGACGUGGAGGCGGUUAAUCGAAUUUUCGGCGGAUGCCUCCAAA [A36U A42C U47A] | < 1e-05 | < 1e-05 | –
AUAAAAGCGCCAGAACUACAGAAAUGUAGUUGACGAAGAGGAGGUUUCUCGAAUGUUCGGCGGAUGCCUCCAAA [G37A A48C U55G] | < 1e-05 | – | –
AUAAAAGCGCCAGAACUACAGAAAUGUAGUUGACGUGGAGGAGGUUUAUCGAUUUUUCGGCGGAAGCCUCCAAA [A36U A53U U65A] | < 1e-05 | < 1e-05 | –
AUAAAAGCGCCAGAACUACAGAAAUGUAGUUGACGUGGGGGAGGUUUAUCGAAUUUUCGGCGGAUGCCUCCAAA [A36U A39G] | < 1e-05 | – | –
AUAAAAGCGCCAGAACUACAGAAAUGUAGUUGACGGGGAGGAGGUUUAUCGAAUUUUAUGCGGAUGCCUUCAAA [A36G C58A G59U C70U] | < 1e-05 | < 1e-05 | –
AUAAAAGCGCCAGAACUACAGAAAUGUAGUUGACGGGGAGCAGGUUUAUCGAAUUUUCGGCGGAUGCCUCCAAA [A36G G41C] | < 1e-05 | – | < 1e-05
